Source: paper PMC5427921 (2017)

Columns and labels:
Test in all cases: ITC
[1] = molecular target: CBS-pair domain of human CNNM3 (GST tag removed) (human, UniProt Q8NE01 309-452)
PRL3 C104S = PRL3 C104S (human, UniProt O75365 1-169, C104S)
PRL3 C49A = PRL3 C49A (human, UniProt O75365 1-169, C49A)
[2] = molecular target: PRL3 with the catalytic cysteine (Cys104) mutated to glutamic acid (human, UniProt O75365 1-169, Cys104 to glutamic acid)
PRL3 D72A = PRL3 D72A (human, UniProt O75365 1-169, D72A)
[3] = molecular target: PRL3 with Arg138 mutated to alanine (human, UniProt O75365 1-169, Arg138 to alanine)
PRL3 C104A = PRL3 C104A (human, UniProt O75365 1-169, C104A)
PRL3 L108A = PRL3 L108A (human, UniProt O75365 1-169, L108A)
PRL3 R138E = PRL3 R138E (human, UniProt O75365 1-169, R138E)
PRL3 C49S = PRL3 C49S (human, UniProt O75365 1-169, C49S)

Kd [1] [nM]	Kd (PRL3 C104S) [nM]	Kd (PRL3 C49A) [nM]	Kd [2] [nM]	Kd (PRL3 D72A) [nM]	Kd [3] [nM]	Kd (PRL3 C104A) [nM]	Kd (PRL3 L108A) [nM]	Kd (PRL3 R138E) [nM]	Kd (PRL3 C49S) [nM]	Binder
11										PRL2 phosphatase (as used in ITC) (enzyme) MNRPAPVEISYENMRFLITHNPTNATLNKFTEELKKYGVTTLVRVCDATYDKAPVEKEGIHVLDWPFDDGAPPPNQIVDDWLNLLKTKFREEPGCCVAVHCVAGLGRAPVLVALALIECGMKYEDAVQFIRQKRRGAFNSKQLLYLEKYRPKMRLRFRDTNGHCCVQ
	1400	72	2800	215	320	180	1700	530	105	CNNM3 CBS-pair domain as a GST fusion (domain or fragment) LRCRTVEDVLTPLEDCFMLDASTVLDFGVLASIMQSGHTRIPVYEEERSNIVDMLYLKDLAFVDPEDCTPLSTITRFYNHPLHFVFNDTKLDAVLEEFKRGKSHLAIVQKVNNEGEGDPFYEVLGLVTLEDVIEEIIRSEILDE
